Among the data in US20210309702A1 are Gectosomes depleted by RAW 264.7 macrophages after 3 h (BlaM activity remaining in the media) and Gectosomes depleted by RAW 264.7 macrophages after 6 h (BlaM activity remaining in the media) values, retold here.

The target of this test is signal regulatory protein a (SIRPa) (mouse) (UniProt P97797). Description: cell-based or functional assay.
Chain of UniProt P97797 (P97797 32-513): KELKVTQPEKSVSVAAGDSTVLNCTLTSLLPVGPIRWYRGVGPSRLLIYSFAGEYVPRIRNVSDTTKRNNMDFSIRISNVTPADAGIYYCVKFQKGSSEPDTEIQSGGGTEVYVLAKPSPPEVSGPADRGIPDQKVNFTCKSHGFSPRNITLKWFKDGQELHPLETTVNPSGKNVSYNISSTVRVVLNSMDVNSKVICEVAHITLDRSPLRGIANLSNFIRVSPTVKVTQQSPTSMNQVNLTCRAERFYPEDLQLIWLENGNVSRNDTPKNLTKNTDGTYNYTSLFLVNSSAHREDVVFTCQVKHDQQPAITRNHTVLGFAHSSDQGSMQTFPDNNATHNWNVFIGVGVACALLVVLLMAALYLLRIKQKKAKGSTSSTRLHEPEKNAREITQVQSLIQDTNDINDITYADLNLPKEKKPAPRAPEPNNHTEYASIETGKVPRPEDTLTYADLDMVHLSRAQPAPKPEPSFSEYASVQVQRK

“Myc and GFP11-tagged mouse CD47 (CD47-Myc-GFP11) (from UniProt Q61735 19-303)” gave a Gectosomes depleted by RAW 264.7 macrophages after 3 h (BlaM activity remaining in the media) of 10 % depleted and a Gectosomes depleted by RAW 264.7 macrophages after 6 h (BlaM activity remaining in the media) of 50 % depleted.
